Data reported in the DeepSol protein solubility set.

assay: soluble on expression in E. coli; label from the status in PepcDB or PDB records

| Sequence | soluble on expression in E. coli |
| --- | --- |
| SLIENSHVKKDDIWPSGGQMTVKDLTAKYTEGGNAILENISFSISPGQRVGLLGRTGSGKSTLLSAFLRLLNTEGEIQIDGVSWDSITLQQWRKAFGVIPQKVFIFSGTFRKNLDPYEQWSDQEIWKVADEVGLRSVIEQFPGKLDFVLVDGGCVLSHGHKQLMCLARSVLSKAKILLLDQPSAHLDPVTYQIIRRTLKQAFADCTVILCEHRIEAMLECQQFLVIEENKVRQYDSIQKLLNERSLFRQAISPSDRVKLFPHRNSSKCKSKPQIAALKEETEEEVQDTRLENLYFQGDKDCEMKRTTLDSPLGKLELSGCEQGLHEIKLLGKGTSAADAVEVPAPAAVLGGPEPLMQATAWLNAYFHQPEAIEEFPVPALHHPVFQQESFTRQVLWKLLKVVKFGEVISYQQLAALAGNPAATAAVKTALSGNPVPILIPCHRVVSSSGAVGGYEGGLAVKEWLLAHEGHRLGKPGLG | soluble |
| SLIPIFIAKRENGEKIHLLDHHDEELLHHMRKRESFFCIACGKEVLMRLGKQKRWHFAHKKVDSCLAFYEAESTYHMYGKELLYRWFKRQNVHVEIEHYLPEIRQRPDIFIERAGKQIAIEYQCANLSIEQLCKRTYSYWRAGIQVIWIIGGNQLKKHSAYWMKFSSLMAFSLQSYPQPLLIFFCSKQKSFMKCTFITSFSTSVAFSHIIYLPIETTTFEMLFSPVPFQREVLNREWKRRKDYFRQNALPILNYNHKSLLRLLYQCKCNPANFPSEIGVPLPSSFAFQTNSFIWQAFLYMNCIGELAVGDCISLKYVCSYIKKYTKRRMLPYFSQH | not soluble |
| SLKSGCSARQVCAGNTHFAVVTVEKELYTWVNMQGGTKLHGQLGHGDKASYRQPKHVEKLQGKAIHQVSCGDDFTVCVTDEGQLYAFGSDYYGCMGVDKVAGPEVLEPMQLNFFLSNPVEQVSCGDNHVVVLTRNKEVYSWGCGEYGRLGLDSEEDYYTPQKVDVPKALIIVAVQCGCDGTFLLTQSGKVLACGLNEFNKLGLNQCMSGIINHEAYHEVPYTTSFTLAKQLSFYKIRTIAPGKTHTAAIDERGRLLTFGCNKCGQLGVGNYKKRLGINLLGGPLGGKQVIRVSCGDEFTIAATDDNHIFAWGNGGNGRLAMTPTERPHGSDICTSWPRPIFGSLHHVPDLSCRGWHTILIVEKVLNSKTIRSNSSGLSIGTVFQSSS | soluble |
| SLLSPAAERSQGSLLSVIMEILKDQSHRELFGLELGSGTGQHVVHFAQEMPFVTWLPSDTKEESRNSIRAYIEATKAKTVLEPVHLDASEPWDKWAGLPQNSCDIILAINLLQYTPFSTAEGVFKGSGQILKQNGLLMTYGPYAINGTITPICNEQLDETLRQMNPEWGLPDIDVLRQLAFSNGMRMERMIEMPESNKCLVFRKL | soluble |
| SLLVENLKQLQERVAVSDGRAKADLVIKNGRIINVFSGEIMDGDIAIKNGYIAGIGNFPDAEKIIDAAGAFIAPGFIDAHVHVESAMVTPAEFARVLLPNGVTTIVTDPHEIANVAGEKGIEFMLEDAKGVPIDMFVMLPSSVPATEGEHNGETLHAEKLHPLYRHEKVIGLAEVMDFPSVAKGSSDILTKIIDAKKEGGRIDGHGAGLTSADLNNYLAVGIRTDHESTTAKEATDRLRAGMFVMLREGTVGRDLLQTIPAVSEKNSHRFCFCTDDKLINDLITEGSINFNIRLAIKNGIDPITAIQMATINAANCHNLPYLGAVAAGYQADIVFLTDIETVEISKVLKNGEVVVDNGVRHEAAFKQQAAVPFVSPPINHHVSLQDLALPLTKETCYVIGMQPNSLFTEKRIEQVAIQDGKFVPTVENDLLKMAVVERHHDTGCVGLGIVKGFGLTEGAIATTVAHDSHNIVAVGISDEAMKAAIDHITQTGGGIAVVNGAGQVLHDLALPIAGLLSDKSYEEVENDLAGLLNAFKQISTADGFDPFLTLSFLTLPVIPELKLTDQGLFDFATFQIISNEVN | soluble |
| SLNRLFKRYSQQVQLILEATRAIGDGNLKERIDTNQVQEELNDIASAINFMVDSLDQYIHDIYTLEIKQRDAHMRALQSQINPHFLYNTLEYIRMYALSRQQEELADVVYAFSTLLRNNINQEKTTTLAEEISFCEKYVYLYQMRYPDQFAYKFEIEETIADVEIPKFIIQPLVENYFVHGIDYQRQDNAIKVHAYREGEKIIVAVVDNGKGITANRLEEIRERLNQTEIDTEQSIGLRNVHERLQRFFGESYGLTIEGKEGEGTTIRLSFVA | soluble |
| SLQNNQPVEFNHAINYVNKIKNRFQGQPDIYKAFLEILHTYQKEQRNAKEAGGNYTPALTEQEVYAQVARLFKNQEDLLSEFGQFLPDA | soluble |
| SLRDSFHFKTYRKRRICPTMTLVLDLDETLIYCTKKRKYHYQKEVDVLINGKYLPLYVCKRPYIDLFFSSLYPFYEIIIFTTAIKSYADTVLNIIDVDHYIDKKFYREDCYEMNEKLYIKNLTNIKKELSKIILIDDSNISGFQYPDNFFPIKKWQGDLNDNELLHLIPFFLNLRKLKDIRSLCSFRLISQKDVSKLLCTSS | not soluble |
| SLRIREIEPIVLTSKEKGSATWASIMIVTRVITENGEVGYGEAVPTLRVISVYNAIKQVSKAYIGKEVEEVEKNYHEWYKQDFYLARSFESATAVSAIDIASWDIIGKELGAPIHKLLGGKTRDRVPVYANGWYQDCVTPEEFAEKAKDVVKMGYKALKFDPFGPYYDWIDERGLREAEERVKAVREAVGDNVDILIEHHGRFNANSAIMIAKRLEKYNPGFMEEPVHHEDVIGLRKYKASTHLRVALGERLISEKETAFYVEEGLVNILQPDLTNIGGVTVGRSVIKIAEANDVEVAFHNAFGSIQNAVEIQLSAVTQNLYLLENFYDWFPQWKRDLVYNETPVEGGHVKVPYKPGLGVSINEKIIEQLRAEPIPLDVIEEPVWVVKGTWKNYGV | not soluble |
| SLRLPTVFRQMRPVSRVLAPHLTRAYAKDVKFGADARALMLQGVDLLADAVAVTMGPKGRTVIIEQSWGSPKVTKDGVTVAKSIDLKDKYKNIGAKLVQDVANNTNEEAGDGTTTATVLARSIAKEGFEKISKGANPVEIRRGVMLAVDAVIAELKKQSKPVTTPEEIAQVATISANGDKEIGNIISDAMKKVGRKGVITVKDGKTLNDELEIIEGMKFDRGYISPYFINTSKGQKCEFQDAYVLLSEKKISSIQSIVPALEIANAHRKPLVIIAEDVDGEALSTLVLNRLKVGLQVVAVKAPGFGDNRKNQLKDMAIATGGAVFGEEGLTLNLEDVQPHDLGKVGEVIVTKDDAMLLKGKGDKAQIEKRIQEIIEQLDVTTSEYEKEKLNERLAKLSDGVAVLKVGGTSDVEVNEKKDRVTDALNATRAAVEEGIVLGGGCALLRCIPALDSLTPANEDQKIGIEIIKRTLKIPAMTIAKNAGVEGSLIVEKIMQSSSEVGYDAMAGDFVNMVEKGIIDPTKVVRTALLDAAGVASLLTTAEVVVTEIPKEEKDPGMGAMGGMGGGMGGGMF | soluble |
| SLSAAEADLAGKSWAPVFANKNANGDAFLVALFEKFPDSANFFADFKGKSVADIKASPKLRDHSSTIFTRLNEFVNNAANAGKMSAMLSQFAKEHVGFGVGSAQFENVRSMFPGFVASVAAPPAGADAAWTKLFGLIIDALKAAGK | soluble |
| SLSESFPLLEKYRIGKVIGDGNFAVVKECVDRYTGKEFALKIIDKAKCCGKEHLIENEVSILRRVKHPNIIMLVEEMETATDLFLVMELVKGGDLFDAITSSTKYTERDGSAMVYNLANALRYLHSLSIVHRDIKPENLLVCEYPDGTKSLKLGDFGLATVVEGPLYTVCGTPTYVAPEIIAETGYGLKVDVWAAGVITYILLCGFPPFRSENNLQEDLFDQILAGKLEFPAPYWDNITDSAKELISQMLQVNVEARCTAGEILSHPWVSDDASQENNMQAEVTGKLKQHFNNALPKQNSTTTGVSVIMNTALDK | soluble |
| SLSFASETKKELTNLEVKDCCINAELSALIRMNGALSFTNRHLVLDVQTENAAIARRIYTLLKKQYDVSVELLVRKKMRLKKNNVYIVRFSENAKAILEDLKILGENFVFERSISKELVKKRCCKRSYMRGAFLAGGSVNNPETSSYHLEIFSLYKEHNDSLCDLLNEFQLNSKTLERKKGYITYLKEAEKITEFLNVIGAHNSLLRFEDVRIVRDMRNSVNRLVNCETANLNKTIGASLRQVENIKYIDERIGLEALPEKLREIAQLRIDYQEVTLKELGEMVASGKISKSGINHRLRKLDEIAEQLRTGQTVTLK | soluble |
| SLTQSLLMYMDGPEVIGSSLGSPMEMEDALSMKGTAVVPFRATQEKNVIQIEGYMPLDCMFCSQTFTHSEDLNKHVLMQHRPTLCEPAVLRVEAEYLSPLDKSQVRTEPPKEKNCKENEFSCEVCGQTFRVAFDVEIHMRTHKDSFTYGCNMCGRRFKEPWFLKNHMRTHNGKSGARSKLQQGLESSPATINEVVQVHAAESISSPYKICMVCGFLFPNKESLIEHRKVHTKKTAFGTSSAQTDSPQGGMPSSREDFLQLFNLRPKSHPETGKKPVRCIPQLDPFTTFQAWQLATKGKVAICQEVKESGQEGSTDNDDSSSEKELGETNKGSCAGLSQEKEKCKHSHGEAPSVDADPKLPSSKEKPTHCSECGKAFRTYHQLVLHSRVHKKDRRAGAESPTMSVDGRQPGTCSPDLAAPLDENGAVDRGEGGSEDGSEDGLPEGIHLDKNDDGGKIKHLTSSRECSYCGKFFRSNYYLNIHLRTHTGEKPYKCEFCEYAAAQKTSLRYHLERHHKEKQTDVAAEVKNDGKNQDTEDALLTADSAQTKNLKRFFDGAKDVTGSPPAKQLKEMPSVFQNVLGSAVLSPAHKDTQDFHKNAADDSADKVNKNPTPAYLDLLKKRSAVETQANNLICRTKADVTPPPDGSTTHNLEVSPKEKQTETAADCRYRPSVDCHEKPLNLSVGALHNCPAISLSKSLIPSITCPFCTFKTFYPEVLMMHQRLEHKYNPDVHKNCRNKSLLRSRRTGCPPALLGKDVPPLSSFCKPKPKSAFPAQSKSLPSAKGKQSPPGPG | not soluble |
| SLTRAVAALLPDGKRLHLQHGPIDLIIGAEGGPGAREAAFVTATARFETVLAELVGELPLLKTELAPDAPLPLGPVARRMDTACRPLMALRLTRMAAVAGAVADEVLAAMLSSTPLTRAYVNNGGDIALHLTGDTRFTLAMATPDGRDLGRISLGTGDRIGGIATSGLGGRSLSLGIAESVTVLAPSAAGADAAATLIANATDLPGHPAIRRAPANTVKDDSDLGQRPVVTHCGPLDRNEVLHALENGRKLAVEMIANGHIRSAHLSLRGQSCQAGAIPVIAPERRLALA | soluble |
| SLVAVIGCCHGELNRLYMEVEKYENEKNEKVDLILCCGDMQTIRDENDLQDMAVKSHRSKKGDFWEYYEGLKKAPKLTIFIGGNHETPNVLIPLYYGGWVAPNIFYLGSSGVIRVGDVRVAGISGIYKNYDHFRGYYESKPFTEESKRSWYHIRWLEIQKLLLIENIKSNFLGSTESRKVDVMISHDWPNGIERFGNLNYLIRRKPYLKEDIELGRLGIPGCIELIEHLRPTFWFSGHHHCFFDASIEFENQLYSSEFRAIDKFKNSNSPVRYFDINSNKNDVRIYLDFEWLTILRSVKANIPKGNFTIDKNSIPKLSGPTKSDIDAIYKNLKEVIGDFDENHYEWPLWGQANGNFKNLQDQYNFINRIIEEG | not soluble |
| SLVKGESGHQAVSGIAIQRDLAIIEVDKEHLSSATKQCQMLGIDIWNVIEETERTGIMIKQEACAKFDLVFSDKIRNSEAVSLLTAVGLEANGMVEHACGLLAQQDIAINFCATNALTMMLVLPPESVDTAANILHDAYITSSEALNIQQKHAFLG | not soluble |
